We go through 10 molecules from patent publication US20150037349A1 (TECHNOPHAGE INVESTIGA O E DESENVOLVIMENTO EM BIOTECNOLOGIA, published 2015).

In general, Kd refers to a measure of binding affinity in units of concentration. The low end stands for a tighter complex, the high end for a looser complex.

B1: rat albumin (other)
chain: EAHKSEIAHRFKDLGEQHFKGLVLIAFSQYLQKCPYEEHIKLVQEVTDFAKTCVADENAENCDKSIHTLFGDKLCAIPKLRDNYGELADCCAKQEPERNECFLQHKDDNPNLPPFQRPEAEAMCTSFQENPTSFLGHYLHEVARRHPYFYAPELLYYAEKYNEVLTQCCTESDKAACLTPKLDAVKEKALVAAVRQRMKCSSMQRFGERAFKAWAVARMSQRFPNAEFAEITKLATDVTKINKECCHGDLLECADDRAELAKYMCENQATISSKLQACCDKPVLQKSQCLAEIEHDNIPADLPSIAADFVEDKEVCKNYAEAKDVFLGTFLYEYSRRHPDYSVSLLLRLAKKYEATLEKCCAEGDPPACYGTVLAEFQPLVEEPKNLVKTNCELYEKLGEYGFQNAVLVRYTQKAPQVSTPTLVEAARNLGRVGTKCCTLPEAQRLPCVEDYLSAILNRLCVLHEKTPVSEKVTKCCSGSLVERRPCFSALTVDETYVPKEFKAETFTFHSDICTLPDKEKQIKKQTALAELVKHKPKATEDQLKTVMGDFAQFVDKCCKAADKDNCFATEGPNLVARSKEALA
notes: also called rat serum albumin; albumin from rat sera
B10: rat TNF-alpha (ligand)
chain: LRSSSQNSSDKPVAHVVANHQAEEQLEWLSQRANALLANGMDLKDNQLVVPADGLYLIYSQVLFKGQGCPDYVLLTHTVSRFAISYQEKVSLLSAIKSPCPKDTPEGAELKPWYEPMYLGGVFQLEKGDLLSAEVNLPKYLDITESGQVYFGVIAL

Assay [1] addresses T1, VL18-3L-VL11 PEP DI #7.
T1 construct: also called Variant #7
The assay can be described thus: Biacore (SPR).

The target in assay [2] is T2, BSA (bovine, UniProt P02769).
T2 construct: coated as negative-control antigen; Negative control antigen of the ELISAs; also called bovine serum albumin
T2 sequence (P02769 25-607 limits assumed): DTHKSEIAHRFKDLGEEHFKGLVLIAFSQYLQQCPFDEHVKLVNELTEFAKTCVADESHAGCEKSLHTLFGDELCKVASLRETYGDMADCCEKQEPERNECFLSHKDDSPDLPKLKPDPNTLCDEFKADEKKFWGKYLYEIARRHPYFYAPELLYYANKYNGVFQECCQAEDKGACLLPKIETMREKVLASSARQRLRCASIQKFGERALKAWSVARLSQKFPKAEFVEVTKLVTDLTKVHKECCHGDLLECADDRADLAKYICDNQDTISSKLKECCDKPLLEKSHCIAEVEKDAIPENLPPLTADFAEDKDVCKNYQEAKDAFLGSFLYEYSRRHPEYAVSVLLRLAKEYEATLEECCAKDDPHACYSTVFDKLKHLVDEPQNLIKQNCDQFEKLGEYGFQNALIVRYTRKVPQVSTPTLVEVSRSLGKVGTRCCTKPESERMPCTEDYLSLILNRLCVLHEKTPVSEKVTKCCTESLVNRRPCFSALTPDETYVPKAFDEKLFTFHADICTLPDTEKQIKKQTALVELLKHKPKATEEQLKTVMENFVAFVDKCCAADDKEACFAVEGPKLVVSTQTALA
The assay can be described thus: ELISA, BSA as negative-control antigen, anti-HA-HRP, OD 405 nm.
Description: (§1) Relative binding activities of VL monomers and constructed dimers were measured for human and rat TNF-alpha, while BSA was used as a negative control. Briefly, a 384-well ELISA plate was coated with 80 ng of human or rat TNF-alpha and incubated overnight at 4° C. Wells were blocked for one hour at 37° C. with 3% BSA in PBS. Antibody fragments were added to the wells and incubated for 1 h at room temperature. After washing the wells with PBS, anti-HA-HRP mAb (Roche) was used for detection.

In assay [3] the target is B10. Description: ELISA, rat TNF-alpha coated (80 ng/well), anti-HA-HRP, OD 405 nm, one unstated fragment concentration.
Description: as §1
The target of assay [4] is T3, human TNF-alpha (human, UniProt P01375 77-233).
T3 construct: Immobilised on a CM5 chip or coated on ELISA plates
T3 sequence (P01375 77-233 limits assumed): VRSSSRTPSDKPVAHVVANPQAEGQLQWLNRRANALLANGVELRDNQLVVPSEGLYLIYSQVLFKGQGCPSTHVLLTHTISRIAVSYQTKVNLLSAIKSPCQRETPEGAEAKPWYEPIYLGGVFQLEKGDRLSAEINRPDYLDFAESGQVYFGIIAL
Description: ELISA, human TNF-alpha coated (80 ng/well), anti-HA-HRP, OD 405 nm, one unstated fragment concentration. (In general: An ELISA detects its analyte on a solid surface through an enzyme-linked reagent.)
Description: as §1

The target of assay [5] is T3, human TNF-alpha. The assay can be described thus: Biacore (SPR).
The target of assay [6] is B1. Description: Biacore (SPR).
For assay [7], the target named is T4, human albumin (human, UniProt P02768 25-609).
T4 construct: also called human serum albumin; albumin from human sera
T4 sequence (P02768 25-609 limits assumed): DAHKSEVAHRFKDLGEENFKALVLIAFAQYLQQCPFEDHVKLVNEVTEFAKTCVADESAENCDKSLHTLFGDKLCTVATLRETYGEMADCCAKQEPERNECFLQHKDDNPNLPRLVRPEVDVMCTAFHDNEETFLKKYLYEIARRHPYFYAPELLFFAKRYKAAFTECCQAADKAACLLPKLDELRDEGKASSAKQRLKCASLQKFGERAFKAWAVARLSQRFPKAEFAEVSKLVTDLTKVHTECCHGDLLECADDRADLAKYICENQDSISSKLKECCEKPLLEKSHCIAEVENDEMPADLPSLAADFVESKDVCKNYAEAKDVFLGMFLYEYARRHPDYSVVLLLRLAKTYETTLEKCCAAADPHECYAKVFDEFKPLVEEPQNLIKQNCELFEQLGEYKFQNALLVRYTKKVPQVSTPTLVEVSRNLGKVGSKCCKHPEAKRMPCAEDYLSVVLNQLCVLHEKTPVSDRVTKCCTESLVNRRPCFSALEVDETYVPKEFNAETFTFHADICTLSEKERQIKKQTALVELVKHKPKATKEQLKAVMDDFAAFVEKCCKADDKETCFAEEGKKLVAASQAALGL
The assay can be described thus: Biacore (SPR). In general terms: In SPR one partner is held on a chip, and binding of the other changes the refractive index at the surface.

The target in assay [8] is T5, mouse albumin (mouse, UniProt P07724 25-608).
T5 construct: also called mouse serum albumin; albumin from mouse sera
Description: antigen cross-reactivity, as described in the Examples above.

The target of assay [9] is B10. The description is as above.
The target in assay [10] is T1, VL18-3L-VL11 PEP DI #7. The assay is described as above.

Molecule B1 returned a Kd in [1] of 28.1 nM. That is a double-digit nanomolar value.

B2: VL11-VL11 3L (other)
single chain VL-VL dimer: ELVMTQTPASVEAAVGGTVTIKCQASQSISRYLAWYQQKPGQPPKLLIYRASTLASGVSSRFKGSGSGTEFTLTISDLECADAATYYCQSTYVNRGSVAAFGGGTEVVVKSGGGGSGGGGSGGGGSSGELVMTQTPASVEAAVGGTVTIKCQASQSISRYLAWYQQKPGQPPKLLIYRASTLASGVSSRFKGSGSGTEFTLTISDLECADAATYYCQSTYVNRGSVAAFGGGTEVVVK
notes: Hexahistidine tail and HA tag; also called VL11-3L-VL11; VL11-11 #3L
With B2, the results for the binding result in assay [2], in assay [3] and in [4] were “no binding”, “binds” and “binds”, respectively.

B3: VL18-3L-VL11 DI3-PEP DI #8 (other)
chain: ELVLTQQPASVEAAPGGTVTIKCQASQSISSYLAWYQQKPGHPPKLLIYKVSTRASGVSSRFSGSGSGTEFTLTISDLKSADAATYYCQSTYLGGTYVGGAFGGGTELEIKSGGGGSGGGGSGGGGSSGELVMTQQPASVEAAPGGTVTIKCQASQSISSYLAWYQQKPGQPPKLLIYRVSTRASGVSSRFSGSGSGTEFTLTISDLKSADAATYYCQSTYVNRGSVAAFGGGTKVVVKSGGGGSGGGGSGGGGSSGDITGAALLEAKDAAINELKQYGISDYYVHLINKADTVEGVNALKDEILSALPYPYDVPDYA
notes: De-immunized dimer DI #3 fused to de-immunized PEP; also called Variant 8
B3: the figures for the Kd in assay [5], in assay [6] and in assay [7] were 0.6 nM, 22.4 nM and 88.5 nM, respectively.

B4: VL18-3L-VL11 DI5-PEP DI #9 (other)
chain: ELVLTQQPASVEAAPGGTVTIKCQASQSISSYLAWYQQKPGHPPKLLIYKASTLASGVSSRFSGSGSGTEFTLTISDLKSADAATYYCQSTYLGGTYVGGAFGGGTELEIKSGGGGSGGGGSGGGGSSGELVMTQQPASVEAAPGGTVTIKCQASQSISSYLAWYQQKPGQPPKLLIYRASTLASGVSSRFSGSGSGTEFTLTISDLKSADAATYYCQSTYVNRGSVAAFGGGTKVVVKSGGGGSGGGGSGGGGSSGDITGAALLEAKDAAINELKQYGISDYYVHLINKADTVEGVNALKDEILSALPYPYDVPDYA
notes: De-immunized dimer DI #5 fused to de-immunized PEP; also called Variant 9
With B4, the binding result in assay [8] and in assay [9] was “binds” throughout. Further, the Kd in [5] was 0.4 nM; in assay [6] it was 32 nM; in [7], 92 nM.

B5: VL18-VL18 3L (other)
single chain VL-VL dimer: ELVLTQTPASVEAAVGGTVTIKCQASQSISSYLAWYQQKPGHPPKLLIYKASTLASGVSSRFKGSGSGTEFTLTISDLECADAATYYCQSTYLGGTYVGGAFGGGTELEILSGGGGSGGGGSGGGGSSGELVLTQTPASVEAAVGGTVTIKCQASQSISSYLAWYQQKPGHPPKLLIYKASTLASGVSSRFKGSGSGTEFTLTISDLECADAATYYCQSTYLGGTYVGGAFGGGTELEIL
notes: Hexahistidine tail and HA tag; also called VL18-3L-VL18; VL18-18 #3L
Regarding B5, the binding result in assay [2] was “no binding”; in [3] it was “binds”; in assay [4], “binds”.

B6: VL18-3L-VL11 DI #3 (other)
chain: ELVLTQQPASVEAAPGGTVTIKCQASQSISSYLAWYQQKPGHPPKLLIYKVSTRASGVSSRFSGSGSGTEFTLTISDLKSADAATYYCQSTYLGGTYVGGAFGGGTELEIKSGGGGSGGGGSGGGGSSGELVMTQQPASVEAAPGGTVTIKCQASQSISSYLAWYQQKPGQPPKLLIYRVSTRASGVSSRFSGSGSGTEFTLTISDLKSADAATYYCQSTYVNRGSVAAFGGGTKVVVKYPYDVPDYA
notes: also called Variant 3
For B6, the binding result in assay [9] was “binds”. In assay [5], the Kd was 0.7 nM.

B7: VL18-3L-VL11 DI #5 (other)
chain: ELVLTQQPASVEAAPGGTVTIKCQASQSISSYLAWYQQKPGHPPKLLIYKASTLASGVSSRFSGSGSGTEFTLTISDLKSADAATYYCQSTYLGGTYVGGAFGGGTELEIKSGGGGSGGGGSGGGGSSGELVMTQQPASVEAAPGGTVTIKCQASQSISSYLAWYQQKPGQPPKLLIYRASTLASGVSSRFSGSGSGTEFTLTISDLKSADAATYYCQSTYVNRGSVAAFGGGTKVVVKYPYDVPDYA
notes: also called Variant 5
Turning to B7, the binding result in [9] was “binds”. In assay [5], this molecule showed a Kd of 0.8 nM.

B8: VL18-3L-VL11 DI #1 (other)
chain: ELVLTQQPASVEAAPGGTVTIKCQASQSISSYLAWYQQKPGHPPKLLIYKVSTRASGVSSRFSGSGSGTEFTLTISDLKSADAATYYCQSAYLGGTYVGGAFGGGTELEIKSGGGGSGGGGSGGGGSSGELVMTQQPASVEAAPGGTVTIKCQASQSISSYLAWYQQKPGQPPKLLIYRVSTRASGVSSRFSGSGSGTEFTLTISDLKSADAATYYCQSAYVNRGSVASFGGGTKVVVKYPYDVPDYA
notes: Cloned in pET28a; also called Variant 1
B8: the binding result in assay [9] is listed as “binds”.

B9: VL11-VL18 3L (other)
single chain VL-VL dimer: ELVMTQTPASVEAAVGGTVTIKCQASQSISRYLAWYQQKPGQPPKLLIYRASTLASGVSSRFKGSGSGTEFTLTISDLECADAATYYCQSTYVNRGSVAAFGGGTEVVVKSGGGGSGGGGSGGGGSSGELVLTQTPASVEAAVGGTVTIKCQASQSISSYLAWYQQKPGHPPKLLIYKASTLASGVSSRFKGSGSGTEFTLTISDLECADAATYYCQSTYLGGTYVGGAFGGGTELEIL
notes: Hexahistidine tail and HA tag; also called VL11-3L-VL18; VL11-18 #3L
Take B9: the results for the binding result in [2], in assay [3] and in assay [4] were “no binding”, “binds” and “binds”, respectively.
With B10, in [10], the binding result is on record as “binds”.
